These results are taken from article PMC3514788 (The Journal of Cell Biology, 2012).

To fix the notation:
B1: Drg1 (enzyme)
chain: MAPKSSSSGSKKKSSASSNSADAKASKFKLPAEFITRPHPSKDHGKETCTAYIHPNVLSSLEINPGSFCTVGKIGENGILVIARAGDEEVHPVNVITLSTTIRSVGNLILGDRLELKKAQVQPPYATKVTVGSLQGYNILECMEEKVIQKLLDDSGVIMPGMIFQNLKTKAGDESIDVVITDASDDSLPDVSQLDLNMDDMYGGLDNLFYLSPPFIFRKGSTHITFSKETQANRKYNLPEPLSYAAVGGLDKEIESLKSAIEIPLHQPTLFSSFGVSPPRGILLHGPPGTGKTMLLRVVANTSNAHVLTINGPSIVSKYLGETEAALRDIFNEARKYQPSIIFIDEIDSIAPNRANDDSGEVESRVVATLLTLMDGMGAAGKVVVIAATNRPNSVDPALRRPGRFDQEVEIGIPDVDARFDILTKQFSRMSSDRHVLDSEAIKYIASKTHGYVGADLTALCRESVMKTIQRGLGTDANIDKFSLKVTLKDVESAMVDIRPSAMREIFLEMPKVYWSDIGGQEELKTKMKEMIQLPLEASETFARLGISAPKGVLLYGPPGCSKTLTAKALATESGINFLAVKGPEIFNKYVGESERAIREIFRKARSAAPSIIFFDEIDALSPDRDGSSTSAANHVLTSLLNEIDGVEELKGVVIVAATNRPDEIDAALLRPGRLDRHIYVGPPDVNARLEILKKCTKKFNTEESGVDLHELADRTEGYSGAEVVLLCQEAGLAAIMEDLDVAKVELRHFEKAFKGIARGITPEMLSYYEEFALRSGSSS

Data set [1] concerns the target GST-Rlp24C (S. cerevisiae) (UniProt Q07915). As to the kind of experiment: SPR. A general note: Surface plasmon resonance follows binding to a sensor surface in real time, without labels.
Data set [2] concerns the molecule itself.
Data set [3] addresses B1. Briefly: pull-down.

Sequence of GST-Rlp24C (S. cerevisiae) (Q07915 147-199): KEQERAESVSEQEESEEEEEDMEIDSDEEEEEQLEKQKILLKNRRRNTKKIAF

In data set [1], “Drg1EQ1 (from UniProt P32794 1-780) (enzyme)” returned a fold RU against the wild-type and EQ2 proteins of 4 fold; a kon2 (two-state reaction) of 0.011 s⁻¹.
B1: in data set [2], the “stoichiometry N” value is 6.

B2: GST-Nup116 fragment from the N terminus to residue 172 (domain or fragment)
chain: MFGVSRGAFPSATTQPFGSTGSTFGGQQQQQQPVANTSAFGLSQQTNTTQAPAFGNFGNQTSNSPFGMSGSTTANGTPFGQSQLTNNNASGSIFGGMGNNTALSAGSASVVPNSTAGTSIKPFTTFEEKDPTTGVINVFQSITCMPEYRNFSFEELRFQDYQAGRKFGTSQN
For the molecule B2, in data set [3], the binding result is on record as “binds”.

The stoichiometry N is the number of molecules, sites or subunits per partner or assembly.
